In PMC12369479, “A monomer–dimer switch modulates the activity of plant adenosine kinase” (Journal of Experimental Botany, 2025):
Values belong to the substance of their own block, whether it stands above or below them.

Columns and labels:
[1] = target: Arabidopsis thaliana adenosine kinase 2 (6×His-AtADK2) (Arabidopsis thaliana) (UniProt Q9LZG0); experiment: SEC; gel permeation chromatography of 6×His-AtADK2 at 1.2 mg/ml (preliminary results, Supplementary Fig. S10)
[2] = target: Arabidopsis thaliana adenosine kinase 2 (6×His-AtADK2) (Arabidopsis thaliana) (UniProt Q9LZG0); experiment: dynamic light scattering; AtADK2 at higher concentrations (5 mg/ml) (preliminary results)
[3] = target: Physcomitrella patens adenosine kinase 1 (PpADK1) (Physcomitrella patens) (UniProt O49923); experiment: SEC; gel permeation chromatography of moss ADKs on Superdex 200 10/30 HR, 20 mM Tris-HCl pH 7.5, 100 mM NaCl; dimers from 0.01 mg/ml (0.25 µM), mainly dimeric above 0.3 mg/ml (7.7 µM); monomer to dimer
[4] = target: Physcomitrella patens adenosine kinase 1 (PpADK1) (Physcomitrella patens) (UniProt O49923); experiment: AUC; sedimentation velocity of PpADK1 at a higher concentration (>0.3 mg/ml), 20 mM Tris-HCl pH 7.5, 150 mM NaCl, 10 mM MgCl2, 10 µM DTT, 1% glycerol, 25 °C, c(s) analysis; monomer to dimer
[5] = target: Physcomitrella patens adenosine kinase 1 (PpADK1) (Physcomitrella patens) (UniProt O49923); experiment: SAXS; small-angle X-ray scattering, 50 mM Tris-HCl pH 7.5, three concentrations up to 5 mg/ml; Guinier analysis and Bayesian molecular weight estimate
[6] = target: Physcomitrella patens adenosine kinase 1 (PpADK1) (Physcomitrella patens) (UniProt O49923)
[7] = target: Physcomitrella patens adenosine kinase 1 (PpADK1) (Physcomitrella patens) (UniProt O49923); experiment: dynamic light scattering; hydrodynamic diameter, 20 mM Tris-HCl pH 7.5, 1 mM MgCl2, apoform or with 2 mM ATP, 22 °C
[8] = target: Physcomitrella patens adenosine kinase 2 (PpADK2) (Physcomitrella patens); experiment: SEC; gel permeation chromatography of moss ADKs on Superdex 200 10/30 HR, 20 mM Tris-HCl pH 7.5, 100 mM NaCl; dimers from 0.01 mg/ml (0.25 µM), mainly dimeric above 0.3 mg/ml (7.7 µM); monomer to dimer
[9] = target: Physcomitrella patens adenosine kinase 2 (PpADK2) (Physcomitrella patens)
[10] = target: Zea mays adenosine kinase 1 (ZmADK1) (Zea mays); experiment: SEC; gel permeation chromatography of maize ADKs at higher concentrations (30 mg/ml), Supplementary Fig. S1
[11] = target: Zea mays adenosine kinase 2 (ZmADK2) (Zea mays); experiment: as above
[12] = target: Zea mays adenosine kinase 3 (ZmADK3) (Zea mays); experiment: as above

stoichiometry N [3]: 2 | stoichiometry N [4]: 2 | stoichiometry N [5]: 2 | specific activity with 100 µM Ado (coupled reaction with PK and LDH, 30 °C) (nmol s^–1 mg^–1) [6]: 5.09 | stoichiometry N [7]: 2
Substance: Physcomitrella patens adenosine kinase 1 (PpADK1) (from UniProt O49923 1-343) (enzyme)

stoichiometry N [10]: 2
Substance: Zea mays adenosine kinase 1 (ZmADK1) (enzyme)

More lines, now with the values behind:

Substance: Arabidopsis thaliana adenosine kinase 2 (6×His-AtADK2) (from UniProt Q9LZG0 1-345) (enzyme)
stoichiometry N [1]: 2 | stoichiometry N [2]: 2

Substance: Physcomitrella patens adenosine kinase 2 (PpADK2) (enzyme)
stoichiometry N [8]: 2 | specific activity with 100 µM Ado (coupled reaction with PK and LDH, 30 °C) (nmol s^–1 mg^–1) [9]: 4.7

Substance: Zea mays adenosine kinase 2 (ZmADK2) (enzyme)
stoichiometry N [11]: 2

Substance: Zea mays adenosine kinase 3 (ZmADK3) (enzyme)
stoichiometry N [12]: 2
